Changes are numbered by the printed parent chain. Numbers in names are those of the source.

For assay [1], the target named is T1, His-TRAF6_(310-522) (human, UniProt Q9Y4K3 310-522).
T1 construct: also called His-T6; recombinant TRAF6 wild-type; source: E. coli BL21 Codon Plus RIPL, purified (Ni-NTA)
T1 sequence: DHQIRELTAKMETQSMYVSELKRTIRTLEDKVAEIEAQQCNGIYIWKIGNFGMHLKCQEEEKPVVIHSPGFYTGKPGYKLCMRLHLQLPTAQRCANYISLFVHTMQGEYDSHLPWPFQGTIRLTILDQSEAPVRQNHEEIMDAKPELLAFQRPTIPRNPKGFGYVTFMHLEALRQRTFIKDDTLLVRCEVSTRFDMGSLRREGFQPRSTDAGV
The experiment in a line: AlphaScreen or HTRF; AlphaScreen PPI assay: His-TRAF and GST-LMP1, GST-CD40 or GST-RANK in PBS with 0.5% BSA and 0.1% Tween-20, 1 h at RT; standard 300 nM His-TRAF and 100 nM GST protein if not indicated otherwise; for KD His-TRAF6 at different concentrations, fit one site-specific binding with hill slope. Conditions: both partners purified. A general note: Alpha assays give light when donor and acceptor beads are brought close together.

For assay [2], the system named is HA-LMP1. The experiment in a line: Confocal immunofluorescence colocalization of Flag-TRAF6 with HA-LMP1 in HeLa cells. The format is cell-based, Epstein-Barr virus. Conditions: mean of ten cells. The method, then: HeLa cells were seeded onto cover glasses (Thermo Scientific, Menzel) in 24-well plates one day before transfection. Cells were transfected at 50–60% confluency with 50 ng of pCMV-HA-LMP1 plasmids and 100 ng of pRK5-Flag-TRAF6 plasmids, adjusted to a total of 500 ng DNA per sample with pRK5 empty vector, using Lipofectamine 2000 (Thermo Fisher Scientific) according to the manufacturer’s instructions. At 24 h posttransfection, cells were washed once with PBS and fixed with 4% paraformaldehyde (Sigma-Aldrich) for 20 min at RT, followed by permeabilization with 0.3% (v/v) Triton X-100 and blocking with 5% (v/v) FBS in PBS for 1 h at RT. For immunostaining, the cells were incubated overnight with the primary antibodies α-HA (1:1000, clone 16B12, BioLegend) and α-DYKDDDDK (1:1000, clone L5, BioLegend) at 4 °C. The secondary antibodies goat α-mouse Alexa 488 (1:500, cross-adsorbed, Invitrogen, #A-11029) and goat α-rat Alexa 555 (1:500, cross-adsorbed, Invitrogen, #A-21434) were added for 1.5 h at RT. Microscope slides were sealed with cover glasses using Mowiol mounting medium (Sigma-Aldrich). Nuclei were stained with Hoechst 33258 (Sigma-Aldrich). All samples were imaged using a Leica TCS SP5 confocal microscope with 405 nm, 488 nm, 543 nm or 633 nm laser lines, scanning each channel separately under image capture conditions that eliminated channel overlap. For each single experiment, 10 transfected cells positive for both constructs were randomly captured as single-cell images for quantification. The resulting images were then analyzed using the Leica TCS SP5 colocalization analyses application (LAS AF Version 2.7.3.9723). Analysis was performed with default parameters.

B1: GST-LMP1_(181-386) A204xAxA (domain or fragment)
chain: LIWMYYHGQRHSDEHHHDDSLPHAQAAADDSGHESDSNSNEGRHHLLVSGAGDGPPLCSQNLGAPGGGPDNGPQDPDNTDDNGPQDPDNTDDNGPHDPLPQDPDNTDDNGPQDPDNTDDNGPHDPLPHSPSDSAGNDGGPPQLTEEVENKGGDQGPPLMTDGGGGHSHDSGHGGGDPHLPTLLLGSSGSGGDDDDPHGPVQLSYYD
notes: also called A204xAxA mutant; CTAR1 mutant; source: E. coli DH5α or BL21 Codon Plus RIPL, purified (glutathione Sepharose 4B)
For the molecule B1, the binding result in assay [1] was “binds”.

B2: GST-LMP1_(181-386) S383A (domain or fragment)
chain: B1 chain with A24P, A26Q, A28T, S203A
notes: source: E. coli DH5α or BL21 Codon Plus RIPL, purified (glutathione Sepharose 4B)
As to B2, the binding result in assay [1] is given as “binds”.

B3: GST-LMP1_(181-386) G378A (domain or fragment)
chain: B1 chain with A24P, A26Q, A28T, G198A
notes: as for B2
In the case of B3, the binding result in assay [1] is on record as “binds”.

B4: GST-LMP1_(181-386) L382A (domain or fragment)
chain: B1 chain with A24P, A26Q, A28T, L202A
notes: as for B2
B4: the binding result in assay [1] is “binds”.

B5: GST-RANK_(314-355) (domain or fragment)
chain: GGGPYAQGEDARMLSLVSKTEIEEDSFRQMPTEDEYMDRPSQ
notes: also called TRANCE receptor; source: E. coli DH5α or BL21 Codon Plus RIPL, purified (glutathione Sepharose 4B)
On to B5, for which the Kd (commonly a measure of binding affinity in units of concentration) in assay [1] was 7.7 nM.

B6: GST-LMP1_(181-386) Y385A (domain or fragment)
chain: B1 chain with A24P, A26Q, A28T, Y205A
notes: also called mutation of Y385 (alanine scan); source: E. coli DH5α or BL21 Codon Plus RIPL, purified (glutathione Sepharose 4B)
On to B6, for which the binding result in assay [1] was “binds”.

B7: GST-LMP1_(181-386) Q381E (domain or fragment)
chain: B1 chain with A24P, A26Q, A28T, Q201E
notes: also called LMP1 Q381E; source: E. coli DH5α or BL21 Codon Plus RIPL, purified (glutathione Sepharose 4B)
B7 came in with a Kd in assay [1] of 14.7 nM.

B8: GST-LMP1_(181-386) Y384F (domain or fragment)
chain: B1 chain with A24P, A26Q, A28T, Y204F
notes: also called LMP1 Y384F; source: E. coli DH5α or BL21 Codon Plus RIPL, purified (glutathione Sepharose 4B)
Regarding B8, the binding result in assay [1] was “binds”.

B9: 371-T6wt: TRAF6 wild-type coexpressed with LMP1Δ371-386 (protein, UniProt Q9Y4K3 1-522, looked up)
TNF receptor-associated …: MSLLNCENSCGSSQSESDCCVAMASSCSAVTKDDSVGGTASTGNLSSSFMEEIQGYDVEFDPPLESKYECPICLMALREAVQTPCGHRFCKACIIKSIRDAGHKCPVDNEILLENQLFPDNFAKREILSLMVKCPNEGCLHKMELRHLEDHQAHCEFALMDCPQCQRPFQKFHINIHILKDCPRRQVSCDNCAASMAFEDKEIHDQNCPLANVICEYCNTILIREQMPNHYDLDCPTAPIPCTFSTFGCHEKMQRNHLARHLQENTQSHMRMLAQAVHSLSVIPDSGYISEVRNFQETIHQLEGRLVRQDHQIRELTAKMETQSMYVSELKRTIRTLEDKVAEIEAQQCNGIYIWKIGNFGMHLKCQEEEKPVVIHSPGFYTGKPGYKLCMRLHLQLPTAQRCANYISLFVHTMQGEYDSHLPWPFQGTIRLTILDQSEAPVRQNHEEIMDAKPELLAFQRPTIPRNPKGFGYVTFMHLEALRQRTFIKDDTLLVRCEVSTRFDMGSLRREGFQPRSTDAGV
On to B9, for which, in assay [2], the “colocalization of TRAF6 with LMP1, mean” value amounted to 32.37.

The values are drawn from article PMC10776578, “Epstein-Barr virus-driven B cell lymphoma mediated by a direct LMP1-TRAF6 complex” (Nature Communications, 2024).
